Measurements taken from the domain aggregation screens of Martell et al. (2025).

Assay: soluble fraction after stress (log2 fold change); higher = more stays soluble; pooled small domains, quantitative proteomics
Conditions: stress: pH 4
Procedure, shortened: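 How much of each domain stays soluble after acid stress, expressed as a fold change, is used to gauge aggregation propensity. Pooled custom libraries of small domains underwent pH 4 stress before high-throughput quantitative proteomics. A higher log2 value means more of the domain stayed soluble.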

“HMGMTDEELNREEERVVAELEAKDEEELTIYNEEDLTFEETLDLPEGSLMRDRENGMIYLKVLDIWMPY” and “HMGMTNRIKELRKAKGYRQEDLAAALGVSRQTIIAVENNKYNPTLELAMKLARHLQTTVEELFQL” are within 0.2 log units of each other in “soluble fraction (log2)” value: -0.831 for the first, -0.885 for the second.

Compared with “HMGMVEFEIGERDHSEDVSRKLFEAGLIEDASDFNQYMIEKKMDDHLQTGKYQIPKGATKDEILELIVR”, “HMGMYAEERHQAIASLARKHGRVSVAELAERFNVTSETIRRDLDSLARRGLLTRVHGGAVPVE” is higher in “soluble fraction (log2)” value: -0.674 for the first, no less than 0.43 for the second.

Compared with “HMGMYFTEMRKNEGLIALNGVAESNKRVSDLMDNLKDSSSFDAADIKAVKSGSGDASSLMDFELLVT”, “HMGNASQAARRQRIVDAALELLQDRPYDQIQMRDVAEGAGVALGTLYRYFPSKEQLFAHVLVE” is lower in “soluble fraction (log2)” value: -0.452 for the first, -0.701 for the second.

First: HMGNEMQVPNVAGKTVDEAIEIFNNMGLKVAAENKYAQSDDVKEGDVVKTDPSSGRNVKKGSEITLYISQG
Second: HMGNEVMYRQDLSEQELLSFIKKYTGQDEVTHIVVGAPKQRDNTPSPVETKITPFVVQLKAQFPDVNVV
The “soluble fraction (log2)” value of the first is higher: 0.291 for the first, -0.217 for the second.

Going from “HMGNFNDMLKYLRVREKMSQAELADKLGVSKSTVGMYELGKREPDFETLEAIADLFNVDMNFLLGK” to “HMGNHMSFKMWGEQLQEAFRALETYDTQKAKTILNELVRFPIDSDITKALKGIISNIDDMMA”, the “soluble fraction (log2)” value falls from -0.439 to -0.721.

“HMGNLPPAVINARIKVSPAGRGVFVGFDKGSTSTEAKYADAIRGYLPNIEFNKDDHESVVTVPFNFR” and “HMGNTLAYSEFRQKVQEGAVKQVVLSEDRVTGELTNGDRFTANIVRDPELLKMLNDNNVKYDGKPT” are within 0.2 log units of each other in “soluble fraction (log2)” value: -0.0258 for the first, -0.0484 for the second.

“HMGNVGEAIEALVKGFQEGNQFQTLLGVTGSGKTFTMANVIAALNKPTLIISHNKTLAAQLYLSLIHIS” and “HMGNYRVIKWGMQGDDVKLMQQMLINRGYVLSATGKYASRTLKAIMAFQEANGLKADGIVGKRTWNKLL” are within 0.2 log units of each other in “soluble fraction (log2)” value: -0.255 for the first, -0.134 for the second.

Compared with “HMGPAYEKIVANGQTFYRYNVKKGEGLMAVSRTFNVSVNDILKYNPSAASGLKDGQELLIPVIDDA”, “HMGPESKLTDAIKDYIYALYENLKGKSKFRNTIIEEVKKLYGVDISRESIRRVVNQKTDAETTENDDDEKA” is higher in “soluble fraction (log2)” value: -0.29 for the first, 0.197 for the second.

“HMGPKALLKIPGLQEVDAELLFKEGYKSISAVASADPEMLKAIPGVDEQKVTEWVTGAEQILSQQVNKGA” and “HMGPKPVDMSPIPEGQRNQVLHDWMYGRAANHPENWGQIRSDALERGLKSGLKADEIHAITGSVARALGLE” are within 0.2 log units of each other in “soluble fraction (log2)” value: 0.25 for the first, 0.0794 for the second.

Going from “HMGPNPLTEREQEILQLARTGEPVARLAKRLFLSPGTVRNHLSSAIGKLGAANRVEAAQFATERGW” to “HMGPSLDAVREQIRDLIAEEDKSAPYSDLSLVAELEKRGIHISRRTIAKYRGEMGIPNSDQRRYF”, the “soluble fraction (log2)” value rises from -0.0238 to 0.325.

“HMGPSSIVVYVSGAVKTPGVYTLAPGSRVDDAVRAAGGLSERAESAGTNLAAQLSDGEHVHVAAAGE” and “HMGPTGGLTPHIAIADKRASEAIEFYKQAFGAVEQVRMPAEDGVRLMHAHLLVNGSSLMMHDDFPEYSGQ” are within 0.2 log units of each other in “soluble fraction (log2)” value: -0.159 for the first, 0.0087 for the second.

Going from “HMGPTLSPAEKRVFEVIPYDAILQDMVIRAAELPPGEVLAALTTLELKGLIKRLPGNLVMRRAR” to “HMGPVALGVTDGATYFSSVTITFRRGTAVLDGEPIASGHTVYKSGAHSLTLTAGGKTRTIAFTMDT”, the “soluble fraction (log2)” value rises from -0.267 to 0.139.

Compared with “HMGPVPLASAADMEKFYSHLQQVLDEVDFKDRTGSGHLMARLRRLFQRTVLDQNEINILRGILMAVQGRR”, “HMGQGAASAPLRELGVDPVSEKQMVLKDGRFGPYVTDGETNASLRKGDEVETITDERASELLQMRRDAGPS” is higher in “soluble fraction (log2)” value: -0.959 for the first, 0.0347 for the second.

Going from “HMGQISDDGALKKLASEVLAANPQALADWKAGKQQAVSFLVGQAMKASKGRGDAALLGELIRAALD” to “HMGQKASEVEKIFVELQQQIIRGDLPPGYRLVESQIAAQFGVSRTPARLAIERLATAGLVAHETNRGATVH”, the “soluble fraction (log2)” value falls from 0.0477 to -0.36.

First: HMGQKNEDESLAKFYVHKKGNQYGPYSLIQIREYLKNNSFSLDDLASWDGQSWKKISQIPNLN
Second: HMGQLTDKQILLFSGKLAYEPTFASKYSKAGESYDDFIIRISGDLTDPKKIKEYSPYLKELGF
The “soluble fraction (log2)” value of the first is higher: 0.182 for the first, -0.954 for the second.

“HMGQNYTIVKGDSLWKIAQKQYGDGSQWKKIYDANKDAIESAAKKYGKKSSDSGKWIYPGVSLII” and “HMGQVEVPDVVGMTQERAITTLTEAKLVAQIQLTPADVAKGLVAAQSPRAGLKIGEGSFVTIEVSTGPVI” are within 0.2 log units of each other in “soluble fraction (log2)” value: 0.134 for the first, 0.229 for the second.

“HMGQVFEGTFNRKANGKNSVTPAEGGEPVFIAERNSLHAMNGDLVKVSLLAKKKHQPREAQVIEILKRSD” and “HMGQVPPLTRRETEIARLVSRGLSNKEIASTLVISPRTAEGHVEHILDKLGFSSRTQIATWLNEQTRNGK” are within 0.2 log units of each other in “soluble fraction (log2)” value: 0.338 for the first, 0.313 for the second.

Compared with “HMGRDWKTDLLNLATARGWGDVSYEVTGEGPDHARVYTAVAIVANQKTGTGVGPSKKEAERLAAEQAYRML”, “HMGRELSDLELSLLRILDDKIPLLIDEAADRLQLPVAQVLSAVTIMEIDGLIRREGMRKYLRTVEVEETK” is lower in “soluble fraction (log2)” value: 0.132 for the first, -1.3 for the second.

“HMGRFAETVEHIVAAQLARRQGIPTMEQFASFFNVSRATFQRRLGEEGETLEQIKQRVRLRLALELLHP” and “HMGRGAAKGPLKELGLDPVTGRPLVVKDGKFGMYVTDGETNAGLRRGDLVEQLTLDRGMELLAERRARADQ” are within 0.2 log units of each other in “soluble fraction (log2)” value: -0.441 for the first, -0.258 for the second.

Going from “HMGRKIDDPSSMTGAEKAAVILLALGDEQRQLWEMMDDEEIRVVSQAMVNLGNVTSGAVEKLIMEFVGSMS” to “HMGRKPATTIPLQVRNAVLDLYRTKYYGANFQHYTELLHEHEGIRISTSSVAKILEAEYILSPK”, the “soluble fraction (log2)” value falls from -0.425 to -0.838.

Going from “HMGRKPVSPEIVERVLQLAKSNPDWGYEHIAGTMRYLGYNVSATTIRHILEANGIVPDPERRL” to “HMGRMSLDEAKAVILPIGEHKGHTMGEVLAIKPGLIDFYASQKFNSGKYPYLKEAAQVILENQG”, the “soluble fraction (log2)” value rises from -0.543 to 0.173.

“HMGRRERKKLQSRRAIIEAAVTEFKEKGFREASVADIMTRADLGLGTFYNYFQSKEDILMSLLS” and “HMGRRRAAPQEPLRQFPASPVTGQPIKLLLGQYGPYVTDGTTNASLPKGSSPDELTFEQATQLLAERALRG” are within 0.2 log units of each other in “soluble fraction (log2)” value: -0.0713 for the first, 0.0322 for the second.

Going from “HMGRSARVQQAVHQAVRALLEENDGERSALSVPLVAERAGVNSSTIYRRWGDLPRLLAAVASN” to “HMGRTVKGVNFVGLRDAGDPVDLAEIYSKEGADELVFLDITATHEKRKTLLDLVTRVAERINIPFTVGGGI”, the “soluble fraction (log2)” value falls from 0.0284 to -0.331.

“HMGSALLEAGADDAGQRLDQWLAAKLGPSISRSRVQALIKQGAVLVGGKPAGEAKRKLVAGDVVSVALPEP” and “HMGSDLVAWAQTRIGRHPEEAADVIAALIDRHGEARVRAASRSLLARKFAHASDLRTAIDAAIG” are within 0.2 log units of each other in “soluble fraction (log2)” value: 0.133 for the first, 0.0531 for the second.

Compared with “HMGSEEMLGALGVVERATDDGDWWIAVHGEHWRARSAQALVPGDRVRVARIDGLTLTVTPIA”, “HMGSEGVKVEDTIGMSEAEATATLGKSGFVVNKTESHDPYIKAGNVITQSPAAGSKAPKGTTVTLTISLGP” is higher in “soluble fraction (log2)” value: 0.0708 for the first, 0.423 for the second.

First: HMGSEISYSEFLNRVEQGQVAAVRLDGEQIFITGPTGEAYQTIQPRNTDVLPDLREAGVEIQAAPQ
Second: HMGSEYPSNPLASRWAKGVRLYHDEWGYGVIQAARGSEPDDYVITVRFESGAEKSFLPKFQAHSLMIVKD
The “soluble fraction (log2)” value of the first is higher: -0.675 for the first, -0.974 for the second.

Compared with “HMGSGQVTLPDLEGKSMKEVARILSQLGLHLSPDGHGLAFKQSPAAGTRVPVGSTIKVSFQPL”, “HMGSKKAIPYVSGMSETEAQNELEEAGFKVTSSFQYDDSVESGKVISTTPEAGTKAEKGSTVTMLVSQGSN” is higher in “soluble fraction (log2)” value: -0.208 for the first, 0.0696 for the second.

“HMGSLVQTAMQAVTKHIHDNAMRVGDTLPGEGHFAETLGVSRAVMREAFGALAALKLIDVGNGRKPRVGR” and “HMGSNATIKYAIKGDESLVQVAQKFNVTVSELRSWNNISAFENAKTGQELVINVPASKYETYFALANT” are within 0.2 log units of each other in “soluble fraction (log2)” value: 0.091 for the first, -0.0194 for the second.

Going from “HMGSNLSFDLSQIIASRYQEKAAELGLTAPSLARTDLSPQEQATAEVVARAIIADYYDQRVAPFNDLIPQ” to “HMGSNRPLALGDVVRIEGSKTLGTILELNAKDAVVALGALKTTLPLSRIHHASSQESQRLKRQATQAPLR”, the “soluble fraction (log2)” value rises from -1.54 to 0.0932.

Compared with “HMGSPKLVIKNGQVDYQVLKKEKLDLLELTSLLRGQNTFSIREIEYAIIEPNGVITVIKKPEYQSVVKGDL”, “HMGSPVTAVMNRVLNETERQIVTLHVISGFKHREIAELLEKPVGTVLWTYNNALGKMRKAMQRE” is higher in “soluble fraction (log2)” value: -1 for the first, -0.603 for the second.

First: HMGSRRFGDSNHAAKLTEEQVVEIRELAAAGATTKFLAEMVGMHPNYVGLILRGLSWPEAGGPLRVA
Second: HMGSVDMVYGDHKINSEHMDLSFKNQTAVLYDKVNYKSSLSMLSADKILVNFLNKYTKIEMNDENNNILIQ
The “soluble fraction (log2)” value of the first is higher: 0.0889 for the first, -0.128 for the second.

“HMGSVNDNVQKLTSQIGETTETGDTITPEDVELYKKMVDPLSTMAQKLEAAEILKLKGIIGSNGIIV” and “HMGSWEDALKNWVDSALASGQKGILEQAVPKFERIMIETALTHTAGRRRDASLLLGWGRNTLTRKIKELGI” are within 0.2 log units of each other in “soluble fraction (log2)” value: -0.0476 for the first, 0.0465 for the second.

Compared with “HMGTAESIRLFLSSGLIKGVGEALAGRIVDTFGTDTFDIIENHPELLAGVKGISHRLAMSIYESFSQHIGV”, “HMGTDIGADKAAQTALADAGLSSSQVTGLRTKQDWDDGQLRYEVEFRAGGVEYDYELAADGTILKADRDT” is higher in “soluble fraction (log2)” value: -0.951 for the first, 0.254 for the second.

Compared with “HMGTEITEQRAKEIALENAKVAESDVTAMRVKKEMDDGVWRYDVEFYVQNKEYDYEINAMDGTILSVDYD”, “HMGTESFGARIRKIREARDWTPAALAEATGQTPEFVARVERDEVAPPVAFLLRLAAALGVDPSTF” is lower in “soluble fraction (log2)” value: 0.0797 for the first, -0.672 for the second.

First: HMGTGADKNSWTIGDKVKHRKWGTGTVVKVTGAGEDAELDIAFKSEGIKRLLAAFAPIEKVK
Second: HMGTHDAGTRFFDNLDSLLQNRDATRADVLAVYLLAVSLGFRGKHRSVSSAPQIAHYRNQAYVTLFQ
The “soluble fraction (log2)” value of the first is higher: -0.0706 for the first, -0.386 for the second.

First: HMGTIEQAFKGKAPGSAHLYDRARAVLAGGVTHDTRIHAPFPIMVQRALGARKWDVDGNEYIDY
Second: HMGTMKGFVDGSSVHLRSGPSLSESIRAKVVKGQTLYITERRGDWYRATVHGGGEGWIHTSLVKLAG
The “soluble fraction (log2)” value of the first is lower: -0.259 for the first, 0.261 for the second.

Compared with “HMGTPLYLLLAAEVRDRIATEQLAPHTAVPSERELAELHGVSRMTARQALALLESEGLVYRNPPRGTFVAE”, “HMGTQIKSPMPGTILDVRVNVGDTVKEGDILMILEAMKMENEILAPVSGKVAAIQVSKGTAVNSGDLLAVL” is higher in “soluble fraction (log2)” value: -0.922 for the first, -0.404 for the second.

For “HMGTRHPLPYAYARANTVLLEDDGDRLVLWAPENVSLTALGEVLRRFDVDALERESSSTLANRIAVAYAG”, the “soluble fraction (log2)” value was -0.896.
